Reference: the nanobody polyreactivity screen of Harvey et al. (2022)

Experiment: yeast display, Sf9 membrane polyspecificity reagent, FACS + sequencing; frameworks hold sequencing errors
Procedure, shortened: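 After 36–48 hours of galactose induction, yeast (Saccharomyces cerevisiae BJ5465) displaying a synthetic nanobody library were stained at 4 °C for 1 hour with 10% biotinylated, detergent-solubilized Sf9 membrane reagent. Streptavidin microbeads enriched the stained cells before FACS sorting into low and high (top ~1%) gates on anti-HA and streptavidin fluorescence. Each clone's polyreactivity label reflects its gate of origin.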

Sequence | polyreactivity (PSR sort gate)
QVQLVESGGGLVQSGGSLRLSCAASGSIFGYYAMGWYRRAPGKERELVAAISVSGGSTYYADSVKGRFTISRDNAKNTVYLLMNSLKPEDTAVYYCNKVQGSWRVPYYYWGQGTQVTVSS | high polyreactivity
QVQLVESGGGLVQSGGSLRLSCAASGSIFYTNAMGWYRQAPGKERELVAAISYGGTTTYADSVKGRFTISRDNAKNTVYLQMNSQKPEDTAVYYCNADWLYYGYWGYGHIWYDYWGQGTQVTVSS | low polyreactivity
QVQLVESGGGLVQSGGSLRLSCAASGSSFLWYGMGSYRQAPGKERELVASISRGGGTDYADSVKGRFTISRDNAKNTVYLQMNSLKPEDTAVYYCAATGVKRYDHWGQGTQVTVSS | low polyreactivity
QVQLVESGGGLVQSGGSLRLSCAASGSTFKYYAMGWYRQAPGKERELVAAISRSGGSTYYADSVKGRFTISRDNAKNTVYIQMNSLKPEDTAVYYCNAYYRYSFCELDKYGYWGQGTQVTVSS | high polyreactivity
QVQLVESGGGLVQSGGSLRLSCAASGSTFVSYDMGWYRQAPGKERELVADISWSGVSTYADSVKGRFTNSRDNAKNTVYLQMNSLKPEDTAVYYCAKDCDLYQRGGYYWGQGTQVTVSS | low polyreactivity
QVQLVESGGGLVQSGGSLRLSCAASGSTLSVYVMGWYRQAPGKERELVARIRSGGNTYYADSVKGRFTISRDNAKNTVYLLMNSLKPEDTAVYYCNADPSTGWYKYDYWGQGTQVTVSS | high polyreactivity
QVQLVESGGGLVQSGGSLRLSCAASGSTLYFKAMGWYRQAPGKERDLVAAITYDGGSTYYADSVKGRFTISRDNAKNTVYLQMNSLKPEDTAVYYCAGRTDGYRNNYWGQGTQVTVSS | high polyreactivity
QVQLVESGGGLVQSGGSLRLSCAASGYIFGYYAMGWYRQAPGKERELVADITWRGDSTYADSVKGRFTISRDNAKNTVYLQMNSLKPEDTAVYYCAADIATEYWYTGYDHWGQGTQVNVSS | low polyreactivity
QVQLVESGGGLVQSGGSLRLSCAASVRIFGPYVMGWYRQAPGKERELVAAISTSGTSTYDADSVKGRFTISRDNAKNTVYLQMNSLKPEDTAVYYCAKRSGALHRLMDYWGQGTQVTVSS | low polyreactivity
QVQLVESGGGLVQSGGSLRLSCAATGSTFWNYAMGWYRQAPGKERELVAAITRGSSTNYADSVKGRFTISRDNAKNTVYLQMNSMKPEDTAVYYCAKRVGRWSAFYYWGQGTQVTVSS | high polyreactivity
QVQLVESGGGLVQSGGSLRLSCAYSGRTFYRNTMGWYRHAPGKEREFVAAISATAGRTYYADSVKWRFTISRDNAKNTVYLQMNSLKPEDTAVYYCAAVPLRNRWANSWPALDYWGQGTLVTVSS | high polyreactivity
QVQLVESGGGLVQSGGSLRLSCDASGRIFSRYAMGWYIQAPGKEREFVAAISRSGTSTYYADSVKVRFTISRDNAKNTVYLQMNSLKPEDTAVYYCAADYPAVISIRRYDYWGQGTQVTVSS | low polyreactivity
QVQLVESGGGLVQSGGSLRLTCAASGTLFYAMGWSRQAPGKERELVATITQRGGSTYYADSVKGRFTLSRDNAKNTVYLQMNSLKPEDTAVYYCAAAIYRASRRRTSYSYDYCGQGTQVTVSS | high polyreactivity
QVQLVESGGGLVQTGGSLRISCAASGSTFYYYAIGWYRQAAGKERELVAGISWGGGSTYYEDSVKGRFTISRDNAKNTVYLQMNSLKPEDTAVYYCNALNPKSYDYWGHGTQVTVSS | low polyreactivity
QVQLVESGGGLVQTGGSLRLSCASSGRIFFDNAMGWYSQAPGKERELVAGIDSGGSTYYADSVKGRFSISRDNAKNTVYLQMNRLKPEDTAVYYCNADYPPSTQSPLLQSYDYWGHGTQVTVSS | low polyreactivity
QVQLVESGGGLVQVGGSLRLSCAASGFTFLGYAMGWYRQAPGKEREMVAAITTGGGSTYYAVSVKGRFTISRDNATTTVYLQMNSLKPEDTAVYYCAARRNVRPRYGYWGQGTQVTVSS | high polyreactivity
QVQLVESGGGLVQVGGSLRLSCAASGLTFYANAMGWYRQAPGKEREVVAAIRKRGGSTYYADSVKGRFTISRDNAKNTVYFQMNSLKPEDTAVYYGATYGGPFSVGTGFHDVRYDYWGHGTQVTVSS | low polyreactivity
